Measurements from the supplement of paper PMC12667976.

B1: library; numbered along this chain (parent)
chain: MATDAALRRLLRLHRTEIAVAVDSAFPLLHALADHDVVPEDKFQETLHLKEKEGCPQAFHALLSWLLTQDSTAILDFWRVLFKDYNLERYGRLQPILDSFPKDVDLSQPRKGRKPPAVPKALVPPPRLPTKRKASEEARAAAPAALTPRGTASPGSQLKAKPPKKPESSAEQQRLPLGNGIQTMSASVQRAVAMSSGDVPGARGAVEGILIQQVFESGGSKKCIQVGGEFYTPSKFEDSGSGKNKARSSSGPKPLVRAKGAQGAAPGGGEARLGQQGSVPAPLALPSDPQLHQKNEDECAVCRDGGELICCDGCPRAFHLACLSPPLREIPSGTWRCSSCLQATVQEVQPRAEEPRPQEPPVETPLPPGLRSAGEEVRGPPGEPLAGMDTTLVYKHLPAPPSAAPLPGLDSSALHPLLCVGPEGQQNLAPGARCGVCGDGTDVLRCTHCAAAFHWRCHFPAGTSRPGTGLRCRSCSGDVTPAPVEGVLAPSPARLAPGPAKDDTASHEPALHRDDLESLLSEHTFDGILQWAIQSMARPAAPFPS

Variants of: B1
Test: AIRE transcriptional activation functional score (insulin promoter-GFP; nonsense median 0, synonymous median 1) (normalised score); higher = higher AIRE activity (more reporter activation)
Conditions: with insulin promoter-GFP reporter in HEK293
Experimental: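 Deep mutational scan of full-length human AIRE (codon-optimized cDNA, DT-POPCode NNN libraries over three regions) integrated at a Bxb1 landing pad in HEK293 cells carrying an insulin core promoter-GFP reporter at a Flp-In site. Cells were sorted for the top 10% GFP about 14 days after transfection. Variant frequency log-ratios (select vs non-select, TileSeq) were rescaled so that the nonsense median is 0 and the synonymous median is 1, then averaged over biological replicates.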

AIRE transcriptional activation functional score of substitutions, site by site:
S234: T 0.61 | Q 1.22 | C 1.53 | F 1.31 | M 1.15 | D -0.22 | P 1.19 | I 0.96 | W 0.775 | Y 1.11 | K 0.869 | R 1.21 | A 1.24 | G 1.16 | V 1.19 | E 0.552 | L 1.04
G240: R 1.01 | S 1.1 | H 0.0803 | W 1.09 | N 1.96 | L 1.2 | I 0.539 | K 1.07 | M 1.08 | V 0.921 | T 1.47 | E 0.406 | A 0.723 | Q 0.0726 | Y -0.451 | P 0.78 | C 0.742 | F 0.96
E237: V 1.19 | I 0.885 | D 0.996 | P 0.729 | A 1.08 | Q 1.03 | G 1.06 | M 1.3 | R 0.603 | Y 0.617 | C 1.16 | F -1.02 | W 0.832 | H 0.943 | T 0.952 | K 0.979 | S 0.791 | L 1.16
S241: M 1.1 | I 1.06 | H 0.567 | G 0.897 | L 1.17 | K 0.301 | F 1.2 | E 1.29 | C 1.11 | D 1.13 | A 0.598 | N 1.13 | P 1.31
S239: R 1.13 | M 1.69 | E 0.783 | F 1.06 | V 1.13 | A 1.2 | I 0.737 | N 1.4 | P 1.06 | H 1.27 | K -0.0573 | G 1.05 | D 0.131 | C 1.16 | T 1.17 | W 1.37 | Y 1.43 | L 1.31
T232: Q 1.38 | L 1.1 | S 1.15 | G 0.941 | W 0.451 | K 1.16 | R 1.18 | V 1.07 | F -0.0868 | H 0.729 | E 1.05 | N 0.834 | M 1.22 | Y 0.775 | P 0.894 | I 0.928
P233: N 1.51 | I 0.184 | K 0.232 | R 1.18 | D 0.675 | G 1.15 | T 1.07 | A 1.09 | V 0.512 | H 1.29 | S 1.01 | F -0.0788 | L 0.385 | Q 0.416 | C 1.17 | Y 0.576
K235: A 0.515 | T 0.985 | W 1.15 | E 0.408 | P 1.43 | N 0.479 | S 0.877 | Q 1.04 | R 1.19 | H 0.221 | M 1.33 | I 0.627 | Y 1.01 | L 0.897 | F 0.827 | G 1.17 | C 1.5 | V 1.45
F236: W 1.44 | I 1.01 | C 0.925 | G 0.726 | K 0.0925 | Y 0.564 | R 0.401 | A 1.03 | L 0.651 | M -0.434 | S 0.712 | N 1.68 | V 0.877 | P 0.266 | T -0.222
D238: E 0.685 | R 0.333 | V 1.23 | I 1.27 | K 0.355 | Q 0.948 | L 1.13 | A 1.15 | Y 1.12 | C 1.24 | H 1.34 | F 1.04 | G 1 | M 0.876 | S 0.788 | T 0.755 | P 1.5 | N 0.588
